In US20230226096A1 (Orna Therapeutics, Inc., priority 2020, published 2023):

Test system: HEK293 cells
Assay type: cell-based, human
Conditions: luminescence from secreted Gluc in supernatant 24 hours after transfection of HEK293 cells; circular RNA encoding Gluc with the named IRES (UTR truncated to 675 nt)

| Molecule | Expression |
| --- | --- |
| Picornavirales Tottori-HG1 (nucleic acid) DNA: AGCCATGAACTAGTGTGCGATTCCCACAGTGTTGGTCGAAAGCCCCGCACTGTCTACTCGCATATTTGACTCCAGTCCTTCCGCAGCCAGCGGTTAGGTTCTGGTTAAAGTGCATTATGTGCACGGCGCCACGCAGAACTGCCAGAAATGGTAAGCTGCGCCCAACGCCAACGGTTTGTGTATCCCGTTAGTCACACGTTTACAGCTGTTCGTTAACAGTAGGGTTTTGTCGACCCGGACCCCTTAATGCGCGCGAATTCAACCGCGCCTAGTCGGCAATGGTATCATTTAATCCCATGCACTACGGGAGAAATTTGAGACCAAAGAATTCCTGAGGGCCACTGCTTGCTCTAAGTGCAATGCCTCGGGAGACTTCTGTCAGGAGCCTAGCGGCTTTCAACCGCGACAGCTAACTCCTGCGGGATGTTTGGTGTCCATACTTACTGGCGTCCTCACAACGCTAAGTGGATGTTGTCCACAGGTAGGCAAACACCGAGCCCCACATTCAGGAGACCTGTATGAACGATCCTATCAGCATTAGAGTTGGAATTGGGTGTGCTAACGTCCGCATAAGTGCACCCCGTGGTAACGCTGGGAAACTATCCAGCGCAACGTACTGTCCTCAATGTCTAGGGAAGGACCGCCCTAAGCGTACAACCGGGCCATGTGTCGAGC | 9.54E+04 |
| Rodent hepatovirus (nucleic acid, listed as Hepatovirus sp.) DNA: TTCAAAGAGGGGTCCGGGATTTTCCTGGTCCCCCTCTTTGGGCACCCTTGGCTCGGGGGTGTGAATACCGTGCTCGCGTTTGCCGTGCGTTAACGGCTTCATTTATGTTTGTTTGTCTGTTTTATTATGTTGGTTTGTCTGTTTGTTATGTTGGTATTGTTCGTGTTTAATGTTATGACCACATTACACTCCAGCCAATGAAGAACAGATGGTGCGGTTATTGCTGGCGGAATTCCTAACGTCCTGGATCCGTTGGTACGCATCACAAAACAATTTGCAGAGAGAGTGGTGAAACGGCTTGGGAATCCCTGAGTACAGGGAAATCACACTGATAGCTCATCTTGGCTGTTTTCAGTCATGGACCTTATGCAGTGTAATTTGGGTGTACCCCCCATAGCTTAGGAGGAATGTTCTGTCTTGGCACTAGAGTGGGACGCTGATGCCTCCGTGTCTAGGATGGTCTAAGGGACAGAATGGGGTGCCTCTGATGCCATACTACCTGATAGGGTGCTCTCACGGCCTCTGCATCTTAGTGAGAAGTTCAATTTT | 1.39E+05 |
| Rabovirus A (nucleic acid, Rabovirus A) DNA: CTACGGATATTTGCATGACCCGCTTTCTATCGCCCCAACAATCCCCTTTGTAACCACAAGCTTTACTCAGGCTAGCAGCCCGACTAGCTGTTTGGAAGAAAAGGCTAGGGCACACACCAACAACACCGACCCCACTGGTCGAAGGCCGCTTGGCAATAAGACTGGTGGAACAGGGTCGCCTGTAGTTGTTTGGAACATTCTTTCTAATGACTTTGTCAGCGGTGCTACTCACACCGTAACTCTTCTACCCTATCCCCACGCTTGTGGAACTAGGAGGGGATGAGTGATTCAAGTAAGTACTGTCAGAATGGTGAAAATGATCTGATTCTGAAACGCTATGGATCCATCGAAAGATGGGGCTACACGCCTGCGGAACAACACATGGTAACATGTGCCCCAGGGGCCGAAAGCCACGGTGATAGGATCACCCGTGTAGTTTGAGATCATATCAATGTTCATAGTCTAGTAAGATGATTTGAAATCTAACTGAGCTGATGGCTAACTGCTTGTCTTATTGCGGCCTAAGGATGTCCTGCAGGTACCTTTAGATAACCTTAAGAGACTATTGATCTGAGCAGGAGCCAAAGTGGTCTTTCCCAGCTTTGGTTAAAAAACGTCTAAGCCGCGGCAGGGGGCGGGAGGCCCCCTTTCCTCCCAAAACTTAATATTGATTGT | 2.88E+06 |
| Livupivirus (nucleic acid, listed as Livupivirus sp.) DNA: TATCTACATGGGGATCCAGGCTGTATGGAATGTCTGTCTTAACAAGCACTATACCAGAAAGATCCACCCAAAGTGGTGGGACTGGGACTGTGAGGTGAGAAATCCCGAAACCAGCCTTCTCAAGCGTCGGACGATCTTTCTGTTTTAGTGAACACCTTGCCTTTTAAATGGATGACAACACCCCTTCAGCAAATCGCAATCTGAAATCCCAAAAGACTGTTTAGCCGAACTCTGGTAATCACTCCGGAGAAGTAGGATACGCAGCCCCTGTGGACTCTTGATTTCAGGACTCAAGGTAGCTAGAGCTGGAACTTCATGGAATGACAAAGGAATATATGCACATTGTGCGCTTTCCTGGCCTTGTAGCCCGTCGTGAGGATATGTCGTTGGGAATCGACATCTTAGTCCAGTACTGCTTGATAGAGTGTCGGCTGGCACAGTTACCTGAGAATAAGTCAGTTGTACTTAACATGAACAAAAAAAATAACTACCACAACTACCACAATCTACCAATACTTGAATTATGCTGAATCTCGTACAGTAAAAACGTTCCGTGGAAGGACAAGTATTGAAGTGCGGTTACATCATCCGATACGCGCTGGATCCCTCA | 2.10E+05 |
| Shingleback nidovirus 1 (nucleic acid, Shingleback nidovirus 1) DNA: CTGTGAGTACCGACAGGCTCGAAGTCTATTATGAGGCGTCGAAACAGAAAACCTGTAACAACTCCGGTTTCATCTATCACTGCCGTCAAGAGGCAGAAGAGGACGACCACGTGTCACCAGATCACTTGTATCTGTTTCAGTCAGGAAGTCAACTTTTCGACGAAGTTCGACCATTCATCGACCCGCTGAAAAGCGTAGAAGTCGATGAAGATGAGCTCCAAAGAGCCATCGCCGATTTCGACAACCAAAGTGACTGTTTCCACTCCTTCGAGCTCGTGAATTTCGAGCTGAAACAACAAATCAACGAGAACGAGTGGTACGGTTATTATAATTACGACAACCAAAACTGCAAAGTTCAGTTGCCAGTCACATGTCGAATCGAGGACGTAACCTGGGATCAGGTTTACGTG | 2.62E+05 |
| Seneca valley virus (nucleic acid) DNA: TTTGAAATGGGGGGCTGGGCCCTGATGCCCAGTCCTTCCTTTCCCCTTCCGGGGGGTTAACCGGCTGTGTTTGCTAGAGGCACAGAGGGGCAACATCCAACCTGCTTTTGCGGGGAACGGTGCGGCTCCGATTCCTGCGTCGCCAAAGGTGTTAGCGCACCCAAACGGCGCACCTACCAATGTTATTGGTGTGGTCTGCGAGTTCTAGCCTACTCGTTTCTCCCCCGACCATTCACTCACCCACGAAAAGTGTGTTGTAACCATAAGATTTAACCCCCGCACGGGATGTGCGATAACCGTAAGACTGGCTCAAGCGCGGAAAGCGCTGTAACCACATGCTGTTAGTCCCTTTATGGCTGCAAGATGGCTACCCACCTCGGATCACTGAACTGGAGCTCGACCCTCCTTAGTAAGGGAACCGAGAGGCCTTCGTGCAACAAGCTCCGACACAGAGTCCACGTGACTGCTACCACCATGAGTACATGGTTCTCCCCTCTCGACCCAGGACTTCTTTTTGAATATCCACGGCTCGATCCAGAGGGTGGGGCATGACCCCTAGCATAGCGAGCTACAGCGGGAACTGTAGCTAGGCCTTAGCGTGCCTTGGATACTGCCTGATAGGGCGACGGCCTAGTCGTGTCGGTTCTATAGGTAGCACATACAAAT | 1.46E+07 |
| Sclerotinia sclerotiorum dsRNA mycovirus-L (nucleic acid) DNA: TTGAATTAATCTTTTACGTTTACGCGCATAAAATCAGGACACATCTCTTGTATACTTTAGTATATCAATGATGTTTTTGTTTTATGCGATTAATCGTAAGAGAACTTCTTTCCATCCGCCTGTATGGGCGGGATAATAAGTTCACCGCCTTGGTCGAGGCGCAAACTTGTATGTGCAAAGGTGAGCTATATGCTCGAAATAGTCGTAACTAACACACAGCCACTACCTGTAGAGCTCTATTGATCCGGAATCCTTTAGTGGGAATGCAGAGCTCACACCGGACCTGCGGGTATCTTCGGCGTTAGGGACTTCTGTTTCAGCCTTGAATCATTTACCTTTATACCTTCTCTGAGGCGCCTGGGCCGGGCGCGATATTAAGTACAAGTCAAGGACATCGCGGGTAGTGGTCTAATCAGCCGCTAGTCCTGCTGGAGAGTTCCAACTTAGTTGGGTGTGGTGCATACTAGCTGGATAGAGTAGGTATGTATTGCTAACGTATGCCGGAGGCTATCCGTCCTCGGTAGAACGTGCCGAGGAGTAGTCTCTGCAGACCCCCGAACGCGTGGGGTCTTTACTTAAATGTAGGCGGAGGGAGCGCTCGTAGGTGGAACGACTGCCTCCCAGTCGAATGCAAGATTTTGCACGCGGACCAGTCTGCCCGGCAATTCCCGGGTG | 1.69E+05 |
| Yak enterovirus (nucleic acid, listed as Enterovirus sp.) DNA: CTCCGGCACAGCCGCACCAGTGCACTGGTACGCTAGTACCTTTTCACGGGGTAGTCGGTATCCCCCCCCGTAACTTAGAAGCATGTAACAAACCGACCAATAGGTGCGCGGCAGCCAGCTGCGTTGCGGTCAAGCACTTCTGTCTCCCCGGTCCGCAAGGATCGTTACCCGCCCACTCCACTACGAGGAGCCTAGTAACTGGCCAAGTGATTGCGGAGTTGCGTTCAGCCACAACCCCAGTGGTAGCTCTGGAAGATGGGGCTCGCACATCCCCCGTGGTAACACGGTTGCTTGCCCGCGTGTGCTTCCGGGTTCAGTCTCCGACTGTTCACTTCAACATCACGCAACCAGCCAAGAGCCGATTGTGCTGGAGTGGTCTTCCTCCGGGGCCGTGAATGCTGCTAATCCTAACCTCCGAGCGTGTGCGCACAATCCAGTGTTGCTACGTCGTAACGCGTAAGTTGGAGGCGGAACAGACTACTTTCGGCACCCCGTGTTTCCTTTATTTTATTCTTATTTTATGGTGACAATTGCAGAGATTTGTGATATTGCGACTTTACCGTTAAACATAGCACTGCATTACCTGGTTGCATTCCACAAAACTTCAGAGATTCCTAGTTCCTACATTGACCTACTTGTTTATTTGAATCTTAAATACAAACTTGAGCAAGTGAA | 6.19E+06 |
| Wobbly possum disease virus (nucleic acid) DNA: CGGCTGTGAGTGCTTAGCATATGCTAGAGTACTACAGCCGGGTGTTGGAGTCATATGCACTGGTTGCCTGTATAATAGTCGGGATCTGTCTGACCTACATTATCTTTGGGAGTTGCTTATCACGACAATTCTCGAAGTGTCTGTCGACAGCTTACCCCCGATTCGACAAGGCCCCTTGTCCACCGCAGACCTATCGATTTTCAACGAGAACACTATCAGAGGTTTAAATTTAAAACTCACCAACA | 2.60E+05 |
